Data reported in the supplement of paper PMC5998384.

Tests used:
[1] = tested on: HeLa Kyoto; assay: solubility in G1/S (NP-40 vs SDS abundance) (log2 ratio); higher = more soluble; settings: cell cycle stage: G1/S
[2] = tested on: HeLa Kyoto; assay: melting temperature (median over replicates), in situ; higher = more thermally stable
[3] = tested on: HeLa Kyoto; assay: solubility change mitosis vs G1/S (difference of NP-40 vs SDS log2 ratios) (log2 ratio difference); higher = more soluble in mitosis
[4] = tested on: HeLa Kyoto; assay: thermal stability score vs G1/S (z-score of summed log2 fold changes over temperatures); higher = more thermally stable than in G1/S
[5] = cell cycle stage: early G1 (4.5 h after nocodazole release)
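For melting temperature (median over replicates), in situ in this document: HeLa Kyoto cells synchronized by double thymidine or nocodazole block, proteins quantified by TMT10plex mass spectrometry, three independent biological replicates.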
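For solubility change mitosis vs G1/S (difference of NP-40 vs SDS log2 ratios) in this document: synchronized HeLa Kyoto cells (double thymidine block for G1/S, nocodazole release for mitosis), protein amounts in NP-40 versus SDS lysates quantified by mass spectrometry, three biological replicates.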
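For solubility in G1/S (NP-40 vs SDS abundance) in this document: HeLa Kyoto cells arrested at G1/S by double thymidine block, proteins quantified by TMT10plex mass spectrometry in mild NP-40 versus SDS extracts, three biological replicates.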
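For thermal stability score vs G1/S (z-score of summed log2 fold changes over temperatures) in this document: synchronized HeLa Kyoto cells, proteins quantified by TMT10plex mass spectrometry, three biological replicates, mitosis taken 0.5 h after nocodazole release, G1/S directly after double thymidine block.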

Row | Sequence | solubility in G1/S (log2) [1] | melting temperature ([2]; cell cycle stage: G1/S) [°C] | melting temperature ([2]; cell cycle stage: mitosis) [°C] | solubility change mitosis (log2) [3] | thermal stability score [4, 5] | thermal stability score ([4]; cell cycle stage: mitosis)
1 | MEKRETFVQAVSKELVGEFLQFVQLDKEASDPFSLNELLDELSRKQKEELWQRLKNLLTDVLLESPVDGWQVVEAQGEDNMETEHGSKMRKSIEIIYAITSVILASVSVINESENYEALLECVIILNGILYALPESERKLQSSIQDLCVTWWEKGLPAKEDTGKTAFVMLLRRSLETKTGADVCRLWRIHQALYCFDYDLEESGEIKDMLLECFININYIKKEEGRRFLSCLFNWNINFIKMIHGTIKNQLQGLQKSLMVYIAEIYFRAWKKASGKILEAIENDCIQDFMFHGIHLPRRSPVHSKVREVLSYFHHQKKVRQGVEEMLYRLYKPILWRGLKARNSEVRSNAALLFVEAFPIRDPNLHAIEMDSEIQKQFEELYSLLEDPYPMVRSTGILGVCKITSKYWEMMPPTILIDLLKKVTGELAFDTSSADVRCSVFKCLPMILDNKLSHPLLEQLLPALRYSLHDNSEKVRVAFVDMLLKIKAVRAAKFWKICPMEHILVRLETDSRPVSRRLVSLIFNSFLPVNQPEEVWCERCVTLVQMNHAAARRFYQYAHEHTACTNIAKLIHVIRHCLNACIQRAVREPPEDEEEEDGREKENVTVLDKTLSVNDVACMAGLLEIIVILWKSIDRSMENNKEAKLYTINKFASVLPEYLKVFKDDRCKIPLFMLMSFMPASAVPPFSCGVISTLRSREEGAVDKSYCTLLDCLCSWGQVGHILELVDNWLPTEHAQAKSNTASKGRVQIHDTRPVKPELALVYIEYLLTHPKNRECLLSAPRKKLNHLLKALETSKADLESLLQTPGGKPRGFSEAAAPRAFGLHCRLSIHLQHKFCSEGKVYLSMLEDTGFWLESKILSFIQDQEEDYLKLHRVIYQQIIQTYLTVCKDVVMVGLGDHQFQMQLLQRSLGIMQTVKGFFYVSLLLDILKEITGSSLIQKTDSDEEVAMLLDTVQKVFQKMLECIARSFRKQPEEGLRLLYSVQRPLHEFITAVQSRHTDTPVHRGVLSTLIAGPVVEISHQLRKVSDVEELTPPEHLSDLPPFSRCLIGIIIKSSNVVRSFLDELKACVASNDIEGIVCLTAAVHIILVINAGKHKSSKVREVAATVHRKLKTFMEITLEEDSIERFLYESSSRTLGELLNS [NCAPG2] | -0.313 | 49.1 | 48.1 | -0.0274 | 0.33 | 0.687
2 | MVAPVLETSHVFCCPNRVRGVLNWSSGPRGLLAFGTSCSVVLYDPLKRVVVTNLNGHTARVNCIQWICKQDGSPSTELVSGGSDNQVIHWEIEDNQLLKAVHLQGHEGPVYAVHAVYQRRTSDPALCTLIVSAAADSAVRLWSKKGPEVMCLQTLNFGNGFALALCLSFLPNTDVPILACGNDDCRIHIFAQQNDQFQKVLSLCGHEDWIRGVEWAAFGRDLFLASCSQDCLIRIWKLYIKSTSLETQDDDNIRLKENTFTIENESVKIAFAVTLETVLAGHENWVNAVHWQPVFYKDGVLQQPVRLLSASMDKTMILWAPDEESGVWLEQVRVGEVGGNTLGFYDCQFNEDGSMIIAHAFHGALHLWKQNTVNPREWTPEIVISGHFDGVQDLVWDPEGEFIITVGTDQTTRLFAPWKRKDQSQVTWHEIARPQIHGYDLKCLAMINRFQFVSGADEKVLRVFSAPRNFVENFCAITGQSLNHVLCNQDSDLPEGATVPALGLSNKAVFQGDIASQPSDEEELLTSTGFEYQQVAFQPSILTEPPTEDHLLQNTLWPEVQKLYGHGYEIFCVTCNSSKTLLASACKAAKKEHAAIILWNTTSWKQVQNLVFHSLTVTQMAFSPNEKFLLAVSRDRTWSLWKKQDTISPEFEPVFSLFAFTNKITSVHSRIIWSCDWSPDSKYFFTGSRDKKVVVWGECDSTDDCIEHNIGPCSSVLDVGGAVTAVSVCPVLHPSQRYVVAVGLECGKICLYTWKKTDQVPEINDWTHCVETSQSQSHTLAIRKLCWKNCSGKTEQKEAEGAEWLHFASCGEDHTVKIHRVNKCAL [ELP2] | -0.174 | 51.7 | 51.4 | -0.181 | -0.251 | -1.61
3 | MFSLSSTVQPQVTVPLSHLINAFHTPKNTSVSLSGVSVSQNQHRDVVPEHEAPSSECMFSDFLTKLNIVSIGKGKIFEGYRSMFMEPAKRMKKSLDTTDNWHIRPEPFSLSIPPSLNLRDLGLSELKIGQIDQLVENLLPGFCKGKNISSHWHTSHVSAQSFFENKYGNLDIFSTLRSSCLYRHHSRALQSICSDLQYWPVFIQSRGFKTLKSRTRRLQSTSERLAETQNIAPSFVKGFLLRDRGSDVESLDKLMKTKNIPEAHQDAFKTGFAEGFLKAQALTQKTNDSLRRTRLILFVLLLFGIYGLLKNPFLSVRFRTTTGLDSAVDPVQMKNVTFEHVKGVEEAKQELQEVVEFLKNPQKFTILGGKLPKGILLVGPPGTGKTLLARAVAGEADVPFYYASGSEFDEMFVGVGASRIRNLFREAKANAPCVIFIDELDSVGGKRIESPMHPYSRQTINQLLAEMDGFKPNEGVIIIGATNFPEALDNALIRPGRFDMQVTVPRPDVKGRTEILKWYLNKIKFDQSVDPEIIARGTVGFSGAELENLVNQAALKAAVDGKEMVTMKELEFSKDKILMGPERRSVEIDNKNKTITAYHESGHAIIAYYTKDAMPINKATIMPRGPTLGHVSLLPENDRWNETRAQLLAQMDVSMGGRVAEELIFGTDHITTGASSDFDNATKIAKRMVTKFGMSEKLGVMTYSDTGKLSPETQSAIEQEIRILLRDSYERAKHILKTHAKEHKNLAEALLTYETLDAKEIQIVLEGKKLEVR [YME1L1] | 0.0482 | 50.9 | 50.8 | -0.0396 | 2.02 | 1.49
4 | MRLRGCGPRAAPASSAGASDARLLAPPGRNPFVHELRLSALQKAQVALMTLTLFPVRLLVAAAMMLLAWPLALVASLGSAEKEPEQPPALWRKVVDFLLKAIMRTMWFAGGFHRVAVKGRQALPTEAAILTLAPHSSYFDAIPVTMTMSSIVMKAESRDIPIWGTLIQYIRPVFVSRSDQDSRRKTVEEIKRRAQSNGKWPQIMIFPEGTCTNRTCLITFKPGAFIPGAPVQPVVLRYPNKLDTITWTWQGPGALEILWLTLCQFHNQVEIEFLPVYSPSEEEKRNPALYASNVRRVMAEALGVSVTDYTFEDCQLALAEGQLRLPADTCLLEFARLVRGLGLKPEKLEKDLDRYSERARMKGGEKIGIAEFAASLEVPVSDLLEDMFSLFDESGSGEVDLRECVVALSVVCRPARTLDTIQLAFKMYGAQEDGSVGEGDLSCILKTALGVAELTVTDLFRAIDQEEKGKITFADFHRFAEMYPAFAEEYLYPDQTHFESCAETSPAPIPNGFCADFSPENSDAGRKPVRKKLD [LPCAT1] | -0.209 | 52 | 52.6 | -0.086 | 2.41 | 3.77
